{"source": "IntAct's records for PubMed 9422512", "target": "wasp_human WAS (UniProt P42768)", "sequence (P42768 whole entry)": "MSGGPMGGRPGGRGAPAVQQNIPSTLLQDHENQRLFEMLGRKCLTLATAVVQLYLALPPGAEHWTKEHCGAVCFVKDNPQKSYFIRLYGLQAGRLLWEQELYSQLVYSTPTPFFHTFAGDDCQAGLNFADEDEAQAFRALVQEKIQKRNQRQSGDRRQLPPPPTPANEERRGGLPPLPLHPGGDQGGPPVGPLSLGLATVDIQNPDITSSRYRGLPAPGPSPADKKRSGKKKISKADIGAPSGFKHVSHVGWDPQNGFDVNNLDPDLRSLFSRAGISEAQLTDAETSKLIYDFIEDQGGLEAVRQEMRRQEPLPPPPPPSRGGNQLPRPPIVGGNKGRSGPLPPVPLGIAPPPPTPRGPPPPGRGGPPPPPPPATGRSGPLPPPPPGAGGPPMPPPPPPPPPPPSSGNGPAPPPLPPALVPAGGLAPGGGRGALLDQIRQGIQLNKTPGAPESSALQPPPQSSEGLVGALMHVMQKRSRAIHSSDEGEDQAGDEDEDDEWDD"}
{"substance": "Cell division control protein 42 homolog (Homo sapiens), P60953 Y40C", "values": [{"measurement": "effect of a mutation on the interaction", "value": "disrupting interaction"}]}
